Values joined by “and” are separate entries in the source; they are usually repeats but may differ in a detail not shown here. Identical values can stand only once.
Target: GST-Yih1[2–258], overexpressed in yeast from a galactose-inducible promoter (S. cerevisiae) (UniProt P25637)
Test: pull-down; in vivo GST pull-down: GST fusions overexpressed in yeast from a galactose-inducible promoter (yih1Δ strains; gcn1Δ strain H2556 for the fragments; also cells arrested in G1 with α-factor and released), WCE (1-2 mg) on glutathione beads, immunoblot for endogenous proteins

Sequence of GST-Yih1[2–258], overexpressed in yeast from a galactose-inducible promoter (S. cerevisiae) (P25637 2-258): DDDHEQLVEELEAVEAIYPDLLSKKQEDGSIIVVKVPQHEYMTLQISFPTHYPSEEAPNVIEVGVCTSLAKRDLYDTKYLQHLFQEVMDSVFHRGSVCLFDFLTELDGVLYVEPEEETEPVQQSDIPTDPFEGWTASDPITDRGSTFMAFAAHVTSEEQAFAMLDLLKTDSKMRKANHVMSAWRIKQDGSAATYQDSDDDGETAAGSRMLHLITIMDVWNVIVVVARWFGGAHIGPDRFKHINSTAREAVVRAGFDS

fold increase of precipitated Cdc28 relative to GST-Yih1 in S-G2/M (30, 60 and 90 minutes after release) against cells arrested in G1 with α-factor: 2 fold and 3 fold
Substance: Cdc28 (endogenous, yeast whole cell extract) (from UniProt P00546 1-298) (natural protein)

— article PMC4503747
